From the Human Domainome abundance scans (Beltran et al. 2025) come the findings set out here.

± gives the uncertainty stated by the source.

To fix the notation:
B1: CD2-associated protein, residues 271 to 331; numbered along this chain, Q9Y5K6 (parent)
chain: KEYCRTLFAYEGTNEDELTFKEGEIIHLISKETGEAGWWRGELNGKEGVFPDNFAVQINEL

The variants in this series derive from B1. The experiment in a line: abundance fitness (aPCA) (normalised: wild type 0, dead -1); higher = more abundant; growth selection in yeast, the domain comes from the species named. The note with it: Homo sapiens.
Regarding KEYCRTLFAYEGTNEDELTFKEGEIIHLISKETGCAGWWRGELNGKEGVFPDNFAVQINEL [E35C], the abundance fitness is -0.027 ± 0.12.
The result for KEYCRTLFAYEGTNEDELTFKEGEIIHLISKETGQAGWWRGELNGKEGVFPDNFAVQINEL [E35Q] reads 0.036 ± 0.067.
The result for KEYCRTLFAYEGTNEDELTFKEGEIIHLISKETGIAGWWRGELNGKEGVFPDNFAVQINEL [E35I] reads 0.119 ± 0.12; that for KEYCRTLFAYEGTNEDELTFKEGEIIHLISKETGNAGWWRGELNGKEGVFPDNFAVQINEL [E35N], 0.002 ± 0.11.
The result for KEYCRTLFAYEGTNEDELTFKEGEIIHLISKETGMAGWWRGELNGKEGVFPDNFAVQINEL [E35M] reads -0.028 ± 0.097; that for KEYCRTLFAYEGTNEDELTFKEGEIIHLISKETGTAGWWRGELNGKEGVFPDNFAVQINEL [E35T], 0.132 ± 0.079.
For KEYCRTLFAYEGTNEDELTFKEGEIIHLISKETGAAGWWRGELNGKEGVFPDNFAVQINEL [E35A], the abundance fitness is 0.055 ± 0.1.
With KEYCRTLFAYEGTNEDELTFKEGEIIHLISKETGHAGWWRGELNGKEGVFPDNFAVQINEL [E35H], the abundance fitness was -0.078 ± 0.094.
The result for KEYCRTLFAYEGTNEDELTFKEGEIIHLISKETGPAGWWRGELNGKEGVFPDNFAVQINEL [E35P] reads -0.252 ± 0.067; that for KEYCRTLFAYEGTNEDELTFKEGEIIHLISKETGRAGWWRGELNGKEGVFPDNFAVQINEL [E35R], 0.034 ± 0.063; that for KEYCRTLFAYEGTNEDELTFKEGEIIHLISKETGKAGWWRGELNGKEGVFPDNFAVQINEL [E35K], 0.069 ± 0.08.
The result for KEYCRTLFAYEGTNEDELTFKEGEIIHLISEETGEAGWWRGELNGKEGVFPDNFAVQINEL [K31E] reads -0.111 ± 0.49; that for KEYCRTLFAYEGTNEDELTFKEGEIIHLISYETGEAGWWRGELNGKEGVFPDNFAVQINEL [K31Y], -0.634 ± 0.076.
The result for KEYCRTLFAYEGTNEDELTFKEGEIIHLISRETGEAGWWRGELNGKEGVFPDNFAVQINEL [K31R] reads 0.017 ± 0.089; that for KEYCRTLFAYEGTNEDELTFKEGEIIHLISSETGEAGWWRGELNGKEGVFPDNFAVQINEL [K31S], -0.571 ± 0.068.
For the variant KEYCRTLFAYEGTNEDELTFKEGEIIHLISMETGEAGWWRGELNGKEGVFPDNFAVQINEL [K31M], the abundance fitness is -0.013 ± 0.25.
KEYCRTLFAYEGTNEDELTFKEGEIIHLISPETGEAGWWRGELNGKEGVFPDNFAVQINEL [K31P]: the abundance fitness was -0.703 ± 0.17.
For KEYCRTLFAYEGTNEDELTFKEGEIIHLISVETGEAGWWRGELNGKEGVFPDNFAVQINEL [K31V], the abundance fitness was -0.313 ± 0.073.
As to KEYCRTLFAYEGTNEDELTFKEGEIIHLISIETGEAGWWRGELNGKEGVFPDNFAVQINEL [K31I], the abundance fitness is -0.672 ± 0.091.
The result for KEYCRTLFAYEGTNEDELTFKEGEIIHLISQETGEAGWWRGELNGKEGVFPDNFAVQINEL [K31Q] reads -0.52 ± 0.14; that for KEYCRTLFAYEGTNEDELTFKEGEIIHLISTETGEAGWWRGELNGKEGVFPDNFAVQINEL [K31T], -0.024 ± 0.062.
The result for KEYCRTLFAYEGTNEDELTFKEGEIIHLISGETGEAGWWRGELNGKEGVFPDNFAVQINEL [K31G] reads -0.522 ± 0.11; that for KEYCRTLFAYEGTNEDELTFKEGEIIHLISFETGEAGWWRGELNGKEGVFPDNFAVQINEL [K31F], -0.848 ± 0.086.
In the case of KEYCRTLFAYEGTNEDELTFKEGEIIHLISWETGEAGWWRGELNGKEGVFPDNFAVQINEL [K31W], the abundance fitness was -0.862 ± 0.47.
The result for KEYCRTLFAYEGTNEDELTFKEGEIIHLISLETGEAGWWRGELNGKEGVFPDNFAVQINEL [K31L] reads -0.476 ± 0.064; that for KEYCRTLFAYEGTNEDELTFKEGEIIHLISDETGEAGWWRGELNGKEGVFPDNFAVQINEL [K31D], -0.717 ± 0.14; that for KEYCRTLFAYEGTNEDELTFKEGEIIHLISNETGEAGWWRGELNGKEGVFPDNFAVQINEL [K31N], -0.575 ± 0.069.
The result for KEYCRTLFAYEGTNEDELTFKEGEIIHLISKETTEAGWWRGELNGKEGVFPDNFAVQINEL [G34T] reads -0.086 ± 0.095; that for KEYCRTLFAYEGTNEDELTFKEGEIIHLISKETPEAGWWRGELNGKEGVFPDNFAVQINEL [G34P], -0.181 ± 0.13; that for KEYCRTLFAYEGTNEDELTFKEGEIIHLISKETSEAGWWRGELNGKEGVFPDNFAVQINEL [G34S], -0.014 ± 0.083.
As for KEYCRTLFAYEGTNEDELTFKEGEIIHLISKETLEAGWWRGELNGKEGVFPDNFAVQINEL [G34L], the abundance fitness is -0.477 ± 0.084.
The result for KEYCRTLFAYEGTNEDELTFKEGEIIHLISKETEEAGWWRGELNGKEGVFPDNFAVQINEL [G34E] reads -0.155 ± 0.15.
The result for KEYCRTLFAYEGTNEDELTFKEGEIIHLISKETVEAGWWRGELNGKEGVFPDNFAVQINEL [G34V] reads -0.368 ± 0.078; that for KEYCRTLFAYEGTNEDELTFKEGEIIHLISKETAEAGWWRGELNGKEGVFPDNFAVQINEL [G34A], -0.216 ± 0.094; that for KEYCRTLFAYEGTNEDELTFKEGEIIHLISKETNEAGWWRGELNGKEGVFPDNFAVQINEL [G34N], -0.426 ± 0.42.
As for KEYCRTLFAYEGTNEDELTFKEGEIIHLISKETMEAGWWRGELNGKEGVFPDNFAVQINEL [G34M], the abundance fitness was -0.423 ± 0.13.
Turning to KEYCRTLFAYEGTNEDELTFKEGEIIHLISKETDEAGWWRGELNGKEGVFPDNFAVQINEL [G34D], the abundance fitness is -0.031 ± 0.17.
Regarding KEYCRTLFAYEGTNEDELTFKEGEIIHLISKETIEAGWWRGELNGKEGVFPDNFAVQINEL [G34I], the abundance fitness was -0.66 ± 0.22.
For the variant KEYCRTLFAYEGTNEDELTFKEGEIIHLISKETKEAGWWRGELNGKEGVFPDNFAVQINEL [G34K], the abundance fitness was 0.048 ± 0.098.
The result for KEYCRTLFAYEGTNEDELTFKEGEIIHLISKETFEAGWWRGELNGKEGVFPDNFAVQINEL [G34F] reads -0.491 ± 0.13; that for KEYCRTLFAYEGTNEDELTFKEGEIIHLISKETYEAGWWRGELNGKEGVFPDNFAVQINEL [G34Y], -0.628 ± 0.19.
The result for KEYCRTLFAYEGTNEDELTFKEGEIIHLISKETCEAGWWRGELNGKEGVFPDNFAVQINEL [G34C] reads -0.064 ± 0.18.
The result for KEYCRTLFAYEGTNEDELTFKEGEIIHLISKETWEAGWWRGELNGKEGVFPDNFAVQINEL [G34W] reads -0.712 ± 0.15; that for KEYCRTLFAYEGTNEDELTFKEGEIIHLISKETREAGWWRGELNGKEGVFPDNFAVQINEL [G34R], -0.26 ± 0.078.
